Results: article PMC6632053 (2019)
Bridge positions count the residues as written; N and C are the ends. Square brackets hold non-standard residues; d marks the D form. Primed or numbered codes have the meaning given here. R8 = C=CCCCCCC[C@@](C)(N)C(=O)O; S5 = C=CCCC[C@](C)(N)C(=O)O; Cba′ = not defined here

Key:
[1] = biological target: site-specific mono-biotinylated Mdm2 (human, biotin (site-specific, mono, by sortase-mediated ligation; site not stated)); assay: SPR
human Mdm2 (1–125) = human Mdm2 (1–125) (human); assay: ITC
human Mdm2 (1–125) (human), sequence (chain, as listed by the source): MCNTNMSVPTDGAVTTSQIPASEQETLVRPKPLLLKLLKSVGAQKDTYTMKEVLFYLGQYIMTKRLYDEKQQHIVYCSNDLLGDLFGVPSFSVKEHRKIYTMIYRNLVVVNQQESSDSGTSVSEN

site-specific mono-biotinylated Mdm2 (human, biotin (site-specific, mono, by sortase-mediated ligation; site not stated)), sequence (chain, as listed by the source): as above

B1: MP-292 (peptide)
chain: Ac-LTF[R8]EYWQL[Cba′][S5]SAA-NH2
modifications: staple 4-11; reading uncertain
- Kd [1]: 1.4 nM
- Kd (human Mdm2 (1–125)): < 20 nM
